Reference: the nanobody polyreactivity screen of Harvey et al. (2022)

Experiment: yeast display, Sf9 membrane polyspecificity reagent, FACS + sequencing; frameworks hold sequencing errors
Method in brief: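 A synthetic nanobody library was expressed on Saccharomyces cerevisiae BJ5465 by galactose induction for 36–48 hours. The library was stained for 1 hour at 4 °C with 10% biotinylated, detergent-solubilized Sf9 membrane reagent and enriched with streptavidin microbeads before FACS. Low and high (top ~1%) gates were set on anti-HA fluorescence for expression and streptavidin fluorescence for reagent binding, and each polyreactivity label reflects the gate of origin.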

Sequence | polyreactivity (PSR sort gate)
QVQLVESGGGLVQAGGSLRLSCAASGFTFQYYSMGWYRQAPGKERELVAAISSSGGSTYYADSVKGRFTISRDNAENTVYLQMNSLKPEDTAVYYCAIRVSTYGFSGYDYWGQGTQVTVSS | high polyreactivity
QVQLEEAGGGLVQAGGSLRLSCAASGRTFFENAMGWYRQAPGKEREFVAAISYNGGSTYYADSVKGRFTISRDNAKNTVYLQMNSMKPDDTAVYYCAADPNYGYDYWGQGTQVTVSS | low polyreactivity
QVQLVESGGGLVQAGCSLRLSCAASGLTFYHYTMGWYRQEPGKERDLVAAISRRGGYTYYADSVKGRFTISRDNAKNTVYLQMNSLKPEDTAVYYCAARALRYSRDFDYWGQGTQVTVSS | high polyreactivity
QVQLVESGGGLVQAGGSLRLICAASGRIFASYTMGWYRQAPGKERELVAGISRRGGSTYYADSVKGRFTISRDNAKNTVYLQMNSLKPEDTAVYYCAAVSSVFSVRYDYWGQGTQVTVSS | high polyreactivity
QVQHVESGGGLVQAGGSLRLSCAASGSNFGYVMGWYRQAPGKERELVAAISRSGGSTYYADSVKGRFTISRDNAKNTVYLQMNSLKPEDTAVYYCAARLYSSSYNSEQYYYWGQGTQVTVSS | high polyreactivity
QGQLVESGVGLVQAGGSLRLSCAASGLTFSWYAMGWYRQAPGKERELVAVITTSGGSTYYSDSVKGRFTISRDNAKNTVYLQMNSLKPEDTAVYYCAVGVPSWEFDYWGQGTHVTVSS | low polyreactivity
QVQLVESGGGLVQAGGSLRLSCAASGSTFSVYGMGWYRQAPGKERELVAAITRGSRTYYADSVKGRFTISRDNAKNTVYLQMNSLKPEDTAVYYSAAKWWWRSYWGQGTQVTVSS | high polyreactivity
QVQLVESGGGLVQAGGSLRLSCAASGSTFSKYAMGWYRQAPGKERELVAAISRSGGNTYYADSVKGRFTISRDNAKNTVYLQMNSLKPEDTAVYYCATTLYSYSTGRYRLDYWGQGTQVTVSS | high polyreactivity
QVQLVESGGGLVQAGGSLRLSCAASGSTFYTNAMGWYRQAPGTERELVAAINYSGGSTYYADSVKGRFTISRDNAKNTVYLQMNSQTPEDTAVYYCATDLHWLVTKYGYWGQGTQVTVSS | low polyreactivity
QVQLVESGGGLVQAGGSLRLSCAASGRIIDYYTMGWDRQAPGKERELVATITIVGITNYADSVKGRFTISRDNAKNTVYLQMNSLKPEDTAVYYCAADRADFFVIRTIDPYDYWGQGTQVTVSS | low polyreactivity
QVQLVESGGGLVQAGGSLRLSCAASGSIFYIYAMGWYRQAHGKERELVAAISSGGATYADSVKGRFTISRDNAKNTVYLQMNSLKPEDTAVYYFAVDRAFRAQNYHEYDYWGQGTQVTVSS | low polyreactivity
QVQLVESGGGLVQAGGSLRLSCAASGSTFYRYAMGWYRQAPGKEREFVAAISGSGGSTRYADSVKGRFTISRDNAKNSVFLQMNSLKPEDTAVYYCAARSRYGYSTFDYWGHGTQVTVSS | high polyreactivity
QVQLVESGGGLVQAGGSLRLSCAASGFIFYTYVMGWYRQAPGKERELVAAISGTGGRTYYADSVKGRFTISRDNAKNTVYLQMNSLKPEDTAVYYCAAVSRYATGGGYWGQGTQVTVSS | high polyreactivity
QVQLVESGGGLVQAGGSLRLSCAASGLTFQSYAMGRYRQAPVKERELVATISNGSSTYYADSVKGRFTFSRDNAKNTVYLQMNSLKPEDTAVYFCAKDYYYSRNPLYGHDYWGHGTQVTVSS | low polyreactivity
QVQLVESGGGLVQAGGSLRLSCAASGRIFTYYAMGWYRQAPGKERELVATISSSGSTNYADSVKGRFTISRDNAKNTVYLQMNSLKPEDTAVYYSAKKTRRRYDVKYDYWGQGTQVTVSS | low polyreactivity
QVHLVESGGGLVQAGGSLRLSCAASGYTFYANAMGWYRQAPGKEREFVASITWSGGSTYYADSVKGRFTISRDNAKNTVYLQKNSLKPEDTAVYYCAAESWFKYDYWGQGTQVTVSS | low polyreactivity

Sequence | polyreactivity (PSR sort gate)
QVQLEESGGGLVQAGGRLRLSCAASGPIFGYYAMGWYRQAPGKERELVAGIDWSGGNTYYADSVKGRFTISRDNAKYTVYLQMNSLKPEDTAVYYCNTEGGRDTAWYDYWGQGTQVTVSS | low polyreactivity
QVQLVESGGGLVQAGGSLRLSCAASGRIFWAYTMGWYRQAPGKERELVAAITGSGGSTYYADSVKGRFTISRDNAKNTVYLQMNSLKPEDTAVYYCAADIGYIRLPRGREYDYWGQGTEVTVSS | high polyreactivity
QVQLVESGGGLVQAGGSLRLSCAASGITLTVYTMGWYRQAPGKERKLVAAITYGGTSTYYADSVKGRFTISRDNAKNTVYLQMNSLKPEDTAVYYCNVAFGYSYRGRDYWGQGTQVTVSS | high polyreactivity
QVQLVESGGGLVQAGGSLRLSCAASGITFYVNAMGWYRQAPGKERELVAVITFGGGSTYYADSVKGRFTISRDNAKNTVYLQMNSLKPEDTAVYYCAKDPTYSPYLPGPIFYYKEDYWGQGTQVTVSS | low polyreactivity
QVQLVESGGGLVQAGGSLRLSCAASGRIFPDNTMGGYRQAPGKERELVAVITYSGGSTYYADSVKGRFTISRDNAKNTVYLKMNSLKPEDTAVYYCAARDYYIWFAEVYYWGQGTQVSVSS | low polyreactivity
QVQLVESGGGLVQAGGSLRLSCAASGFIFLEYAMGWYRQAPGKERELVAAISARTGSTYYADSVKGRFTISRDNEKNTVYLLMNSLIPEDTAVYYSNKLTWRGEVDYWGHGTQVTVSS | high polyreactivity
QVQLVESGGGLVQAGGSLRLSCAASGSIFYWYAMGWYRQAPGKEREFVAAISRSDGSTYYADSLKRRFTISRDNAKNTVYLEMNRLKPEDTAVYYCAAERYYFPRSYRYGYWGQGTQVTVSS | low polyreactivity
QVQLVESGGGRVQAGGRIRLRCAASGLIFPGYDMGWYSPAPGKERELVAAISDSGANTYYADSVKGRFTISRDNAKNTVYLQMTSLKQEDTAVYYCAADSSWWYGTSFGRFDYWGQGTQVTVSS | low polyreactivity
QDQLVESGGGLVQAGGSLRLSCAASGRIFLYNAMGWYRQAPGKERELVAAIDGGGTTYADSVKGRFTISRDNAKNTVYLQMNSLKPEDTAVYYCAADWYYQYSIYRYGYWGQGTQVTVSS | low polyreactivity
QVQHVESGGGLVQAGGSLRLSCAASGIIFYDKTMGWYRQAPGKERELVASITWRGGSTYYADSVKGRFTISRDNAKNTVYLQMNSLKPEDTAVYYCNADSSDDYDYWGQGTQVTVSS | low polyreactivity
QVQLVESVGGLVQAGGSLRLSCAASGFTFSWSTKGWYRQAHAKERELVATISWSGSRTYYADSVKGRFTISRDNAKNTVYLEINSLKPEDTAVYYCNVAPHRQVFYTGQYDYWGQGTQVTVSS | high polyreactivity
QVQLVESGGGLVQAGGSLRLSCAASGRIFGTNTMGWYRQAPGKERELVAGISSSGDSTYYADSVKGRFTISRDNAKNTVYLQMNSLKPEDTAVYYCAARKGEFWFPQGGYNYWGQGTQVTVSS | low polyreactivity
QVQLVESGGGLVQAGGSIGLNCAASVSSYEPYVMGWYRQATGKEMELVGAIYESGDTTYYADSVKGRFTISRDNAKNTVYLQMNSLKPEDSAVYYCNAEDPSIYGWWRVGEYDYWGQGTQVTVSS | low polyreactivity
QVQLVESWGGLVQAGGNLRLSCAASGFIFTRYAMGWYRPAPGTERELVAAISTSGDRTYYADSVKGRFTISRDNAKNTVYLQMNSLKPEDTAVYYCAVVRPRSVVRYDYWGQGTQVTVSS | high polyreactivity
QVQLVESGGGLVQAGGILRLSCAASGFIFTANDMGWYIQAPGKVRELVAAISSGGRTYYADSVKGRFTISRDNAKNSVYFQKNSLKPEDTAVYYCARDLYVRNGQRARYDSWGQGTQVTVSS | high polyreactivity
QVQLVESGGGLVQAGGSLRLSCAASGFTFGSNAMGWYRQAPGKERELVAAISWSGGRTYYADSVKGRFTISRDNAKNTVYLQMNSLKPEDTAVYYCNKQYVKPWYRGYYYWGQGTQVTVSS | high polyreactivity
